In PMC4861216:
Several values for one entry are separate records, joined by “and”; a condition that tells them apart may be missing. Identical values can stand only once.

Biological target: protamine-oligonucleotide nanoparticles (proticles) (salmon)
Experiment: co-sedimentation

- percent of added apoA-I bound (5 ug apoA-I/10 ug ON): 80%
- stoichiometry N (apoA-I molecules per nanoparticle): 14000 and 15000
Substance: apolipoprotein A-I (from UniProt P02647 19-267) (natural protein)
